Experimental data as given in patent US20140287471A1, “VARIANT CBH I POLYPEPTIDES WITH REDUCED PRODUCT INHIBITION” (BP CORPORATION NORTN AMERICA INC., priority 2011, published 2014).
Read-outs that look alike come from different tables or passages of the source.

Columns and labels:
[1] = 4-MUL cellobiose tolerance/inhibition assay, dose-response IC50 (Example 2); format: biochemical; details: for synergy of double mutant (measured vs expected additive IC50): measured versus expected additive IC50
Experimental: (§1) CBH I activity on was measured using the 4-MUL assay using gluconolactone to inhibit any BG activity. The fluorogenic 4-MUL substrate (SIGMA) was prepared at 100 mM concentration in DMSO. Assays were run in black 96-well-flat-bottomed plates (Costar) and 4-MU fluorescence was read on a BioTek H4 plate reader (ex/em 365/450 nm). Assay plates were filled with buffer (final concentrations of 100 mM MES, pH 6, 25 mM gluconolactone, with or without cellobiose; cellobiose concentrations are listed with appropriate data sets), to which enzyme mixture was added (10-30 μl, 5 μg/mL final) and then assays were initiated by addition of 4-MUL (0.5 mM final concentration in 100 μl total volume). Enzyme mixtures were either CBH I variants from harvested supernatants or standards. Standards included: a negative control, consisting of harvested supernatant from the CBH I knock-out strain; a positive control, consisting of wild-type CBH I from harvested supernatants; and, a commercial CBH I standard (E-CBHI from Megazymes). Activity standards were run by serial dilution of commercial CBH I from 40 to 0.02 μg/mL and 4-MU (SIGMA, prepared at 20 mM in DMSO) (in dilution increments of 2-fold; all dilutions were made using harvested supernatant from the knock-out control). Kinetic rates were monitored over the first 15 mins following 4-MUL addition; initial rates were calculated based on data in the linear range. After 1 hr, a final endpoint read was taken, both before and after reaction quenching (100 μL of 200 mM Sodium Carbonate, pH 10.0). Activity was calculated for kinetic and endpoint reads; background resulting from the CBH I knock-out supernatant remained negligible. 4MU standard curves and HPLC quantification values were used to calculate specific activity.
Tolerance/inhibition values represent activity ratios and/or percent activity remaining/percent activity decreased in the presence versus the absence of cellobiose. Tolerant variants show less inhibition in the presence of cellobiose as compared to wild type, where an activity ratio of 1 (with vs. without a given concentration of cellobiose) is equivalent to 0% inhibition by cellobiose, or 100% tolerance. The effect of cellobiose on CBH I variant performance was monitored by dose-response in the 4MUL assay. Dose-response curves were generated by assaying variant activity in the presence of 6-8 different cellobiose concentrations ranging up to 100 mM cellobiose. CBH I samples were diluted to 5 μg/mL final concentration or were used directly in the case of protein quantification levels below 5 μg/mL. Half maximal inhibitory concentration (IC50) values were determined by plotting 4MUL activity versus cellobiose concentration and fitting with a four parameter dose-response fitting algorithm, with zero activity (or 100% inhibition) constrained to background activity (as established by CBH I knockout values) and with automatic outlier elimination (on GraphPad Prism 5).
Harvested supernatants from active variant isolates were evaluated for cellobiose tolerance at 1 mM cellobiose in the 4-MUL activity assay. Table 8 lists the tolerance of variants at 1 mM. […] Additional cellobiose concentrations at 0.25, 5, 10, 50, and 100 mM were tested leading to full dose-response curves for which half maximal inhibitory concentration (IC50) values were generated (Table 8). The IC50 values support that the variant library has decreased product inhibition, or increased tolerance to cellobiose, when compared to the wild-type enzyme (WT IC50=0.03 mM; see first entry, Table 8).
In one example, the cellobiose tolerance of the library was explored in more detail by generating dose-response curves and determining half maximal inhibitory concentration (IC50) values, the point at which the enzyme is 50% inhibited.

[2] = 4-MUL assay, specific activity (Example 2); format: biochemical; details: for 411— Measured Specific Activity (SA) / 411— Δ SA* (change in specific activity; ratio of variant: WT): 411 single substitution; for 268A+411— Δ SA* (change in specific activity; ratio of variant: WT) / 268A+411— Measured Specific Activity (SA): double mutant 268A+411X
Experimental: as §1
The specific activity (SA) of the variant library was evaluated in a secondary 4-MUL assay. […] On average, a mutation at position 268 increases the specific activity by 2.5 fold over that of wild type. A mutation at 268 in combination with 411 is around 1.5-1.6 fold higher than wild-type, on average.

[3] = 411 single substitution, averaged IC50 from Tables 8-11, read-out: 411— Measured (merged IC50)
[4] = double mutant 268A+411X, averaged IC50 from Tables 8-11, read-out: 268A+411— Measured (merged IC50)
[5] = double mutant 268A+411X, expected IC50 (additive values of single mutations), read-out: 268A+411— Expected IC50

B1: 268— Ala (protein, UniProt P62694 18-513, looked up, variant R268A)
Exoglucanase 1: QSACTLQSETHPPLTWQKCSSGGTCTQQTGSVVIDANWRWTHATNSSTNCYDGNTWSSTLCPDNETCAKNCCLDGAAYASTYGVTTSGNSLSIGFVTQSAQKNVGARLYLMASDTTYQEFTLLGNEFSFDVDVSQLPCGLNGALYFVSMDADGGVSKYPTNTAGAKYGTGYCDSQCPRDLKFINGQANVEGWEPSSNNANTGIGGHGSCCSEMDIWEANSISEALTPHPCTTVGQEICEGDGCGGTYSDNAYGGTCDPDGCDWNPYRLGNTSFYGPGSSFTLDTTKKLTVVTQFETSGAINRYYVQNGVTFQQPNAELGSYSGNELNDDYCTAEEAEFGGSSFSDKGGLTQFKKATSGGMVLVMSLWDDYYANMLWLDSTYPTNETSSTPGAVRGSCSTSSGVPAQVESQSPNAKVTFSNIKFGPIGSTGNPSGGNPPGGNRGTTTTRRPATTTGSSPGPTQSHYGQCGGIGYSGPTVCASGTTCQVLNPYYSQCL
Tolerance at 1 mM CB (MUL Data) ([1]; 1 mM cellobiose, primary screening, n=1): 48%
IC50 ([1]; primary screening, 10 μL enzyme, cellobiose range 0.0001-100 mM, n=1, read-out: IC50 (MUL Data)): 0.87 mM
SA (μmol 4 MU/min/mg) (MUL Data) ([2]; primary screening, 10 μL enzyme, n=1): 1.42 μmol 4 MU/min/mg

B2: 411Arg (protein, UniProt P62694 18-513, looked up)
Exoglucanase 1: QSACTLQSETHPPLTWQKCSSGGTCTQQTGSVVIDANWRWTHATNSSTNCYDGNTWSSTLCPDNETCAKNCCLDGAAYASTYGVTTSGNSLSIGFVTQSAQKNVGARLYLMASDTTYQEFTLLGNEFSFDVDVSQLPCGLNGALYFVSMDADGGVSKYPTNTAGAKYGTGYCDSQCPRDLKFINGQANVEGWEPSSNNANTGIGGHGSCCSEMDIWEANSISEALTPHPCTTVGQEICEGDGCGGTYSDNRYGGTCDPDGCDWNPYRLGNTSFYGPGSSFTLDTTKKLTVVTQFETSGAINRYYVQNGVTFQQPNAELGSYSGNELNDDYCTAEEAEFGGSSFSDKGGLTQFKKATSGGMVLVMSLWDDYYANMLWLDSTYPTNETSSTPGAVRGSCSTSSGVPAQVESQSPNAKVTFSNIKFGPIGSTGNPSGGNPPGGNRGTTTTRRPATTTGSSPGPTQSHYGQCGGIGYSGPTVCASGTTCQVLNPYYSQCL
IC50 [1, 3]: 0.05 mM
411— Measured Specific Activity (SA) [2]: 0.83 μmol 4 MU/min/mg CBH I
411— Δ SA* (change in specific activity; ratio of variant: WT) [2]: 1.1

B3: 268Glu (protein, UniProt P62694 18-513, looked up, variant R268E)
Exoglucanase 1: QSACTLQSETHPPLTWQKCSSGGTCTQQTGSVVIDANWRWTHATNSSTNCYDGNTWSSTLCPDNETCAKNCCLDGAAYASTYGVTTSGNSLSIGFVTQSAQKNVGARLYLMASDTTYQEFTLLGNEFSFDVDVSQLPCGLNGALYFVSMDADGGVSKYPTNTAGAKYGTGYCDSQCPRDLKFINGQANVEGWEPSSNNANTGIGGHGSCCSEMDIWEANSISEALTPHPCTTVGQEICEGDGCGGTYSDNEYGGTCDPDGCDWNPYRLGNTSFYGPGSSFTLDTTKKLTVVTQFETSGAINRYYVQNGVTFQQPNAELGSYSGNELNDDYCTAEEAEFGGSSFSDKGGLTQFKKATSGGMVLVMSLWDDYYANMLWLDSTYPTNETSSTPGAVRGSCSTSSGVPAQVESQSPNAKVTFSNIKFGPIGSTGNPSGGNPPGGNRGTTTTRRPATTTGSSPGPTQSHYGQCGGIGYSGPTVCASGTTCQVLNPYYSQCL
IC50 ([1]; 268 single substitution, averaged IC50 from Tables 8-11, read-out: 268— Measured (merged IC50)): 0.63 mM
268— Measured Specific Activity (SA) ([2]; 268 single substitution): 1.84 μmol 4 MU/min/mg CBH I
268— Δ SA* (change in specific activity; ratio of variant: WT) ([2]; 268 single substitution): 2.4

B4: 268A+411Glu (protein, UniProt P62694 18-513, looked up, variant R268A R411E)
Exoglucanase 1: QSACTLQSETHPPLTWQKCSSGGTCTQQTGSVVIDANWRWTHATNSSTNCYDGNTWSSTLCPDNETCAKNCCLDGAAYASTYGVTTSGNSLSIGFVTQSAQKNVGARLYLMASDTTYQEFTLLGNEFSFDVDVSQLPCGLNGALYFVSMDADGGVSKYPTNTAGAKYGTGYCDSQCPRDLKFINGQANVEGWEPSSNNANTGIGGHGSCCSEMDIWEANSISEALTPHPCTTVGQEICEGDGCGGTYSDNAYGGTCDPDGCDWNPYRLGNTSFYGPGSSFTLDTTKKLTVVTQFETSGAINRYYVQNGVTFQQPNAELGSYSGNELNDDYCTAEEAEFGGSSFSDKGGLTQFKKATSGGMVLVMSLWDDYYANMLWLDSTYPTNETSSTPGAVEGSCSTSSGVPAQVESQSPNAKVTFSNIKFGPIGSTGNPSGGNPPGGNRGTTTTRRPATTTGSSPGPTQSHYGQCGGIGYSGPTVCASGTTCQVLNPYYSQCL
IC50 [1, 4]: 14.4 mM
IC50 [1, 5]: 3.81 mM
synergy of double mutant (measured vs expected additive IC50) ([1]; double mutant 268A+411X): 3.8
268A+411— Δ SA* (change in specific activity; ratio of variant: WT) [2]: 0.6

B5: 268A+411Gln (protein, UniProt P62694 18-513, looked up, variant R268A R411Q)
Exoglucanase 1: QSACTLQSETHPPLTWQKCSSGGTCTQQTGSVVIDANWRWTHATNSSTNCYDGNTWSSTLCPDNETCAKNCCLDGAAYASTYGVTTSGNSLSIGFVTQSAQKNVGARLYLMASDTTYQEFTLLGNEFSFDVDVSQLPCGLNGALYFVSMDADGGVSKYPTNTAGAKYGTGYCDSQCPRDLKFINGQANVEGWEPSSNNANTGIGGHGSCCSEMDIWEANSISEALTPHPCTTVGQEICEGDGCGGTYSDNAYGGTCDPDGCDWNPYRLGNTSFYGPGSSFTLDTTKKLTVVTQFETSGAINRYYVQNGVTFQQPNAELGSYSGNELNDDYCTAEEAEFGGSSFSDKGGLTQFKKATSGGMVLVMSLWDDYYANMLWLDSTYPTNETSSTPGAVQGSCSTSSGVPAQVESQSPNAKVTFSNIKFGPIGSTGNPSGGNPPGGNRGTTTTRRPATTTGSSPGPTQSHYGQCGGIGYSGPTVCASGTTCQVLNPYYSQCL
IC50 [1, 4]: 13.7 mM
IC50 [1, 5]: 3.09 mM
synergy of double mutant (measured vs expected additive IC50) ([1]; double mutant 268A+411X): 4.5
268A+411— Measured Specific Activity (SA) [2]: 1.22 μmol 4 MU/min/mg CBH I
268A+411— Δ SA* (change in specific activity; ratio of variant: WT) [2]: 1.6

B6: 411His (protein, UniProt P62694 18-513, looked up, variant R411H)
Exoglucanase 1: QSACTLQSETHPPLTWQKCSSGGTCTQQTGSVVIDANWRWTHATNSSTNCYDGNTWSSTLCPDNETCAKNCCLDGAAYASTYGVTTSGNSLSIGFVTQSAQKNVGARLYLMASDTTYQEFTLLGNEFSFDVDVSQLPCGLNGALYFVSMDADGGVSKYPTNTAGAKYGTGYCDSQCPRDLKFINGQANVEGWEPSSNNANTGIGGHGSCCSEMDIWEANSISEALTPHPCTTVGQEICEGDGCGGTYSDNRYGGTCDPDGCDWNPYRLGNTSFYGPGSSFTLDTTKKLTVVTQFETSGAINRYYVQNGVTFQQPNAELGSYSGNELNDDYCTAEEAEFGGSSFSDKGGLTQFKKATSGGMVLVMSLWDDYYANMLWLDSTYPTNETSSTPGAVHGSCSTSSGVPAQVESQSPNAKVTFSNIKFGPIGSTGNPSGGNPPGGNRGTTTTRRPATTTGSSPGPTQSHYGQCGGIGYSGPTVCASGTTCQVLNPYYSQCL
IC50 [1, 3]: 2.93 mM
411— Measured Specific Activity (SA) [2]: 0.80 μmol 4 MU/min/mg CBH I
411— Δ SA* (change in specific activity; ratio of variant: WT) [2]: 1.0

B7: 268A+411Asp (protein, UniProt P62694 18-513, looked up, variant R268A R411D)
Exoglucanase 1: QSACTLQSETHPPLTWQKCSSGGTCTQQTGSVVIDANWRWTHATNSSTNCYDGNTWSSTLCPDNETCAKNCCLDGAAYASTYGVTTSGNSLSIGFVTQSAQKNVGARLYLMASDTTYQEFTLLGNEFSFDVDVSQLPCGLNGALYFVSMDADGGVSKYPTNTAGAKYGTGYCDSQCPRDLKFINGQANVEGWEPSSNNANTGIGGHGSCCSEMDIWEANSISEALTPHPCTTVGQEICEGDGCGGTYSDNAYGGTCDPDGCDWNPYRLGNTSFYGPGSSFTLDTTKKLTVVTQFETSGAINRYYVQNGVTFQQPNAELGSYSGNELNDDYCTAEEAEFGGSSFSDKGGLTQFKKATSGGMVLVMSLWDDYYANMLWLDSTYPTNETSSTPGAVDGSCSTSSGVPAQVESQSPNAKVTFSNIKFGPIGSTGNPSGGNPPGGNRGTTTTRRPATTTGSSPGPTQSHYGQCGGIGYSGPTVCASGTTCQVLNPYYSQCL
IC50 [1, 4]: 11.5 mM
IC50 [1, 5]: 2.28 mM
synergy of double mutant (measured vs expected additive IC50) ([1]; double mutant 268A+411X): 5.0
268A+411— Measured Specific Activity (SA) [2]: 2.21 μmol 4 MU/min/mg CBH I
268A+411— Δ SA* (change in specific activity; ratio of variant: WT) [2]: 2.9
